Data from patent publication US20250304996A1.

Legend:
Test in all cases: cell-based or functional assay
[1] = biological target: SARS-CoV-2 S:G614+Δ19aa spike protein (encoded by pGM907, S-LV v02) (SARS-CoV-2) (UniProt P0DTC2)
[2] = biological target: SARS-CoV-2 S:B.1.1351+Δ19aa spike protein (B.1.351, encoded by pGM970, S-LV v04) (SARS-CoV-2) (UniProt P0DTC2)
[3] = biological target: SARS-CoV-2 S:B.1.1.7+Δ19aa spike protein (encoded by pGM965, S-LV v04) (SARS-CoV-2) (UniProt P0DTC2)

Substance	MM43 IC50 (ug/mL), neutralisation of S-LV transduction [1] [µg/mL]	MM43 IC50 (ug/mL), neutralisation of S-LV transduction [2] [µg/mL]	R001 IC50 (ug/mL), neutralisation of S-LV transduction [1] [µg/mL]	R001 IC50 (ug/mL), neutralisation of S-LV transduction [3] [µg/mL]
MM43 neutralising antibody (mouse IgG1, SARS-CoV-2 S neutralising antibody, Sino Biological, Catalogue No. 40591-MM43)	0.8	0.5		
R001 neutralising antibody (rabbit IgG, SARS-CoV-2 S neutralising antibody, Sino Biological, Catalogue No. 40592-R001)			0.06	0.32
